Literature values as cited in patent publication US20260263353A1, “PROGRAMMABLE DRUG-DEVICE MICRONEEDLE SYSTEM FOR THE DELIVERY AND MONITORING OF DIABETES AND OBESITY MEDICATIONS” (ALJ Creative Works, LLC, priority 2023, published 2026).

Details: once weekly dosing at clinically relevant doses; literature reference [26]

**Q.** Which results are given for Insulin ICODEC?
**A.** half-life: about 196 hours; safety and tolerability: safe and well-tolerated
